Data from IntAct's records for PubMed 16820411.

B1: Intercellular adhesion molecule 5 (Homo sapiens), Q9UMF0 (parent)
chain: MPGPSPGLRRALLGLWAALGLGLFGLSAVSQEPFWADLQPRVAFVERGGSLWLNCSTNCPRPERGGLETSLRRNGTQRGLRWLARQLVDIREPETQPVCFFRCARRTLQARGLIRTFQRPDRVELMPLPPWQPVGENFTLSCRVPGAGPRASLTLTLLRGAQELIRRSFAGEPPRARGAVLTATVLARREDHGANFSCRAELDLRPHGLGLFENSSAPRELRTFSLSPDAPRLAAPRLLEVGSERPVSCTLDGLFPASEARVYLALGDQNLSPDVTLEGDAFVATATATASAEQEGARQLVCNVTLGGENRETRENVTIYSFPAPLLTLSEPSVSEGQMVTVTCAAGAQALVTLEGVPAAVPGQPAQLQLNATENDDRRSFFCDATLDVDGETLIKNRSAELRVLYAPRLDDSDCPRSWTWPEGPEQTLRCEARGNPEPSVHCARSDGGAVLALGLLGPVTRALSGTYRCKAANDQGEAVKDVTLTVEYAPALDSVGCPERITWLEGTEASLSCVAHGVPPPDVICVRSGELGAVIEGLLRVAREHAGTYRCEATNPRGSAAKNVAVTVEYGPRFEEPSCPSNWTWVEGSGRLFSCEVDGKPQPSVKCVGSGGATEGVLLPLAPPDPSPRAPRIPRVLAPGIYVCNATNRHGSVAKTVVVSAESPPEMDESTCPSHQTWLEGAEASALACAARGRPSPGVRCSREGIPWPEQQRVSREDAGTYHCVATNAHGTDSRTVTVGVEYRPVVAELAASPPGGVRPGGNFTLTCRAEAWPPAQISWRAPPGALNIGLSSNNSTLSVAGAMGSHGGEYECAATNAHGRHARRITVRVAGPWLWVAVGGAAGGAALLAAGAGLAFYVQSTACKKGEYNVQEAESSGEAVCLNGAGGGAGGAAGAEGGPEAAGGAAESPAEGEVFAIQLTSA

Variants of: B1
Settings: with actn1_chick ACTN1, P05094
actn1_chick ACTN1, P05094, sequence (P05094 whole entry): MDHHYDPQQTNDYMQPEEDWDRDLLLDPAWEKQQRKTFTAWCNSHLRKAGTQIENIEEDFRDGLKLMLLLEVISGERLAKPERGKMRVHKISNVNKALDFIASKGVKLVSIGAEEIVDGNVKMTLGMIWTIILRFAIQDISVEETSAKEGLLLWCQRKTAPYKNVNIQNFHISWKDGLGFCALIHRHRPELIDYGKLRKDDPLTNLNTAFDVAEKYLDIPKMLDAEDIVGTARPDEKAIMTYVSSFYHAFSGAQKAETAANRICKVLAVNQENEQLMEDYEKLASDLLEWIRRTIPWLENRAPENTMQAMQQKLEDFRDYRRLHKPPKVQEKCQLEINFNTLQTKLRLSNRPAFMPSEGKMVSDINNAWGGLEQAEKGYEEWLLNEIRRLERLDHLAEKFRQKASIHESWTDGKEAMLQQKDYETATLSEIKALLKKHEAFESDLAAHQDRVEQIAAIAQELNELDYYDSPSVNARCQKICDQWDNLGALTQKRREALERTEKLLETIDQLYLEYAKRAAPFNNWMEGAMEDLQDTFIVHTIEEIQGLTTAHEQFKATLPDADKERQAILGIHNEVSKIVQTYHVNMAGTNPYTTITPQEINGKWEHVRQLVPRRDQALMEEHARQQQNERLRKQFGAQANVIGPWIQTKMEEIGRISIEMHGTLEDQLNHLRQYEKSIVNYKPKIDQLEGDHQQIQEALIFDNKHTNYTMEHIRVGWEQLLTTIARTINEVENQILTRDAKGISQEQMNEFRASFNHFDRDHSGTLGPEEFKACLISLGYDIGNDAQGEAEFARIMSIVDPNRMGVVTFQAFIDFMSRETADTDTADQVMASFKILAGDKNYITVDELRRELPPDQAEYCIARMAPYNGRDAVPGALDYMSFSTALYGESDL
With K866R the “effect of a mutation on the interaction” value was “decreasing interaction”. For K866A, the “effect of a mutation on the interaction” value was “decreasing interaction”. For K866A;K867A, the “effect of a mutation on the interaction” value was “disrupting interaction”. With K867A the “effect of a mutation on the interaction” value was “disrupting interaction”. With K867R the “effect of a mutation on the interaction” value was “decreasing interaction”.
